Measured values published in paper PMC8778164, “Towards Complete Tumor Resection: Novel Dual-Modality Probes for Improved Image-Guided Surgery of GRPR-Expressing Prostate Cancer” (Pharmaceutics, 2022).

Legend:
[1] = Stability in PBS at 37 °C (iTLC); type: physicochemical; details: intact labeled ligand after incubation at 37 °C in PBS, n = 1
Description: (§1) Stability in PBS was determined by incubating 20 µL of the labeled compounds (∼11 MBq) in PBS (80 µL) at 37 °C. Radiochemical purity was determined by iTLC at 30 min, 1 h, 2 h and 4 h. Stability in the serum was carried out by adding 70 µL of the labeled compound (∼35 MBq) to 330 µL of mouse serum (Merck, Haarlerbergweg, The Netherlands). The mixture was incubated at 37 °C. At different time points (30 min, 1 h, 2 h and 4 h), an aliquot of the mixture (50 µL) was added to 50 µL ACN. The vial was vortexed and centrifuged at 10,000 rpm for 20 min and the supernatant was analyzed by iTLC.

[2] = Stability in mouse serum at 37 °C (iTLC); type: in vitro ADME; details: for Stability in Mouse Serum (%) 30 min / Stability in Mouse Serum (%) 1 h / Stability in Mouse Serum (%) 2 h / Stability in Mouse Serum (%) 4 h: intact labeled ligand after incubation at 37 °C in mouse serum, n = 1; for Protein-Bound Fraction at 4 h (%): mouse serum
Description: as §1

[3] = In vivo SPECT/CT imaging, VOI quantification; details: male, Balb/c nu/nu, mouse, tumor and kidneys (in vivo VOIs), iv, total radioactivity; from SPECT VOI %IA/mL, 2 h p.i., i.v., non-blocked, n = 3; read-out: Tumor-to-kidney ratio (SPECT)
Description: Seven-week-old male Balb/c nu/nu-specific and opportunistic pathogen-free (SOPF) mice (Janvier Labs, Le Genest-Saint-Isle, France) were housed in individually ventilated cages, with 4 mice per cage. Upon arrival, mice were acclimated for 1 week, with access to food and water ad libitum. […]
Mice (n = 3 per probe) were intravenously injected in the tail vein with 200 µL of Kolliphor® HS 15 (Merck, Haarlerbergweg, The Netherlands) in PBS (0.06 mg/mL) containing [^111In]In-12 (13.40 ± 0.76 MBq, ~670 pmol) or [^111In]In-15 (17.50 ± 1.78 MBq, ~875 pmol). […] The CT and registered, attenuation-corrected SPECT images were analyzed using PMOD (PMOD 3.9, Zurich, Switzerland) and quantification was performed by placing volumes of interest (VOIs) around the tumors and kidneys. An Eppendorf tube filled with a solution of indium-111 of a known activity was measured to determine the calibration factor. The total activity measured in the VOI was divided by the volume of all VOI pixel values and multiplied by the calibration factor to obtain the percentage of injected activity per volume unit (%IA/mL).

SMILES | Stability in PBS (%) 30 min [1] [%] | Stability in PBS (%) 1 h [1] [%] | Stability in PBS (%) 2 h [1] [%] | Stability in PBS (%) 4 h [1] [%] | Stability in Mouse Serum (%) 30 min [2] [%] | Stability in Mouse Serum (%) 1 h [2] [%] | Stability in Mouse Serum (%) 2 h [2] [%] | Stability in Mouse Serum (%) 4 h [2] [%] | Protein-Bound Fraction at 4 h (%) [2] [%] | tissue to tissue ratio at 2 h [3]
CC(C)CC(CC(C)C)NC(=O)[C@H](Cc1c[nH]cn1)NC(=O)CNC(=O)[C@@H](NC(=O)[C@H](C)NC(=O)[C@H](Cc1c[nH]c2ccccc12)NC(=O)[C@H](CCC(N)=O)NC(=O)[C@@H](Cc1ccccc1)NC(=O)COCC(=O)Nc1ccc(CNC(=O)[C@H](CCCCNC(=O)CCOCCOCCOCCOCCNC(=O)OC2CCCC3C=NN=C(c4ccc(CNC(=O)CCCCC[N+]5=C(/C=C/C=C/C=C6N(C)c7ccc(S(=O)(=O)O)cc7C6(C)C)C(C)(C)c6cc(S(=O)(=O)[O-])ccc65)cc4)C3CC2)NC(=O)CN2CCN(CC(=O)O)CCN(CC(=O)O)CCN(CC(=O)O)CC2)cc1)C(C)C (some centres unmarked) [[^111In]In-12, metal not drawn] | 85.8 | 80.1 | 75.0 | 73.1 | 96.3 | 96.4 | 96.5 | 96.5 | 7.0 | 0.47 ± 0.05
CC(C)CC(CC(C)C)NC(=O)[C@H](Cc1c[nH]cn1)NC(=O)CNC(=O)[C@@H](NC(=O)[C@H](C)NC(=O)[C@H](Cc1c[nH]c2ccccc12)NC(=O)[C@H](CCC(N)=O)NC(=O)[C@@H](Cc1ccccc1)NC(=O)CCOCCOCCOCCOCCNC(=O)[C@H](CCCCNC(=O)OC1CCCC2C=NN=C(c3ccc(CNC(=O)CCCCC[N+]4=C(/C=C/C=C/C=C5N(C)c6ccc(S(=O)(=O)O)cc6C5(C)C)C(C)(C)c5cc(S(=O)(=O)[O-])ccc54)cc3)C2CC1)NC(=O)CN1CCN(CC(=O)O)CCN(CC(=O)O)CCN(CC(=O)O)CC1)C(C)C (some centres unmarked) [[^111In]In-15, metal not drawn] | 83.0 | 71.8 | 67.0 | 57.1 | 96.9 | 96.7 | 96.9 | 97.1 | 6.5 | 0.49 ± 0.05
